The values that follow come from US20260028403A1 (Zymeworks, published 2026).

For one assay, the target named is T1, Human CLDN18.2 (human).
T1 construct: on transfected HEK293-6E cells or native on SNU 601 cells
The experiment in a line: flow cytometry, SNU 601 cells. For orientation: Flow cytometry measures light scatter and fluorescence of single cells or particles in a stream.

Assay [1] has as its target T2, Recombinant human/cynomolgus/rhesus macaque CD28 mouse IgG2a Fc fusion protein (Acro Biosystems) (human/cynomolgus/rhesus macaque, UniProt P10747 19-152).
T2 construct: bought; also called huCD28
The experiment in a line: SPR Biacore T200, CD28-mIgG2a Fc on CM5, construct injected, 1:1 model.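 Note: fc fusion captured by amine coupling, run at 25 °C in HEPES buffer pH 7.4, association 140-500 s then dissociation 600-1200 s, values averaged over three independent runs.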 On the technique in general: In SPR one partner is held on a chip, and binding of the other changes the refractive index at the surface.

Assay [2] deals with T3, Recombinant human CD3 epsilon/delta heterodimer, his tag protein (Acro Biosystems) (human, UniProt P07766 23-126; P04234 22-105).
T3 construct: bought
The assay can be described thus: SPR Biacore T200, CD3 e/d-his on CM5, construct injected, 1:1 model.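 Note: measured at 25 °C in HEPES-buffered saline with EDTA and Tween 20 at pH 7.4, values are means of three independent runs.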

The target of assay [3] is T4, Recombinant MSLN his tag protein (R&D systems) (UniProt Q13421 296-580, limits assumed).
T4 construct: his tag; also called mesothelin
The assay can be described thus: SPR Biacore T200, MSLN-his on CM5, construct flowed, 1:1 model.

B1: v37633 (trispecific antibody, human IgG1, lambda, L234A L235A)
heavy 1: not shown
heavy 2: QVQLVESGGGLVQPGGSLRLSCSVSGIDLSSNPMIWVRQAPGKGLQYIGIIDTDGSTYYADWAKGRFTISKDSTTVYLQINSPRAEDTAVYYCARRLHGSSNGYYDDLWGQGTLVTVSSGGGGSGGGGSGGGGSGGGGSDGQMTQSPSSVSASVGDRVTITCQASQSIYSYLSWYQQKPGQRPKLLIYKASTLASGVPSRFSGSGSGTDFTLTISSVQPEDFATYYCQQGYTVTNVDKNTFGGGTKVEIKAAEPKSSDKTHTCPPCPAPEAAGGPSVFLFPPKPKDTLMISRTPEVTCVVVSVSHEDPEVKFNWYVDGVEVHNAKTKPREEQYNSTYRVVSVLTVLHQDWLNGKEYKCKVSNKALPAPIEKTISKAKGQPREPQVYVLPPSRDELTKNQVSLLCLVKGFYPSDIAVEWESNGQPENNYLTWPPVLDSDGSFFLYSKLTVDKSRWQQGNVFSCSVMHEALHNHYTQKSLSLSPG
light: NFMLTQPHSVSESPGKTVTISCKRNTGNIGSNYVNWYQQHEGSSPTTIIYRNDKRPDGVSDRFSGSIDRSSKSASLTISNLKTEDEADYFCQSYSSGFIFGGGTKLTVLGQPKAAPSVTLFPPSSEELQANKATLVCLISDFYPGAVTVAWKADSSPVKAGVETTTPSKQSNNKYAASSYLSLTPEQWKSHRSYSCQVTHEGSTVEKTVAPTECS
notes: Het Fc, FcKO; also called CD28xCD3xCldn18.2 trispecific
The term EC50 denotes the midpoint of the concentration-response curve. The low end stands for an effect from little substance, the high end for a need for much substance. The term Kd denotes a measure of binding affinity in units of concentration. One may read the koff as the first-order rate constant of dissociation. By kon is commonly meant the rate constant with which the complex forms. In the assay with Human CLDN18.2, B1 displayed a Bmax of 8570 MFI and a concentration giving a half-maximal response (EC50) of 40.8 nM. For the same molecule, in assay [1], the equilibrium dissociation constant (Kd) was determined as 55.1 nM, the koff turned out to be 0.0062 s⁻¹ and the kon stood at 113000 M⁻¹ s⁻¹. Further, in assay [2], the Kd came out at 135 nM, the off-rate (koff) came to 0.0176 s⁻¹ and the kon came out at 130000 M⁻¹ s⁻¹.

B2: v37663 (bispecific antibody, human IgG1, lambda, L234A L235A)
heavy 1: not shown
heavy 2: QVQLVESGGGLVQPGGSLRLSCSVSGIDLSSNPMIWVRQAPGKGLQYIGIIDTDGSTYYADWAKGRFTISKDSTTVYLQINSPRAEDTAVYYCARRLHGSSNGYYDDLWGQGTLVTVSSGGGGSGGGGSGGGGSGGGGSDGQMTQSPSSVSASVGDRVTITCQASQSIYSYLSWYQQKPGQRPKLLIYKASTLASGVPSRFSGSGSGTDFTLTISSVQPEDFATYYCQQGYTVTNVDKNTFGGGTKVEIKAAEPKSSDKTHTCPPCPAPEAAGGPSVFLFPPKPKDTLMISRTPEVTCVVVSVSHEDPEVKFNWYVDGVEVHNAKTKPREEQYNSTYRVVSVLTVLHQDWLNGKEYKCKVSNKALPAPIEKTISKAKGQPREPQVYVLPPSRDELTKNQVSLLCLVKGFYPSDIAVEWESNGQPENNYLTWPPVLDSDGSFFLYSKLTVDKSRWQQGNVFSCSVMHEALHNHYTQKSLSLSPG
light: NFMLTQPHSVSESPGKTVTISCKRNTGNIGSNYVNWYQQHEGSSPTTIIYRNDKRPDGVSDRFSGSIDRSSKSASLTISNLKTEDEADYFCQSYSSGFIFGGGTKLTVLGQPKAAPSVTLFPPSSEELQANKATLVCLISDFYPGAVTVAWKADSSPVKAGVETTTPSKQSNNKYAASSYLSLTPEQWKSHRSYSCQVTHEGSTVEKTVAPTECS
notes: 13B08 VH-VL scFv); also called anti-(CLDN18.2xCD3) bispecific control
In the assay with Human CLDN18.2, B2 gave a Bmax of 9200 MFI and an EC50 of 31.3 nM. In assay [2], the dissociation constant (Kd) came out at 76.4 nM, the off-rate constant (koff) worked out at 0.0157 s⁻¹ and the on-rate (kon) was 206000 M⁻¹ s⁻¹.

B3: v34918 (trispecific antibody, human IgG1, kappa, L234A L235A)
heavy 1: QVQLQESGPGLVKPSETLSLTCAVSGFSLTSYGVHWIRQPPGKGLEWLGVIWPGGGTNFNSALMSRLTISEDTSKNQVSLKLSSVTAADTAVYYCARDRAYGNYLYAMDYWGQGTLVTVSSASTKGPSVFPLAPSSKSTSGGTAALGCLVKDYFPEPVTVSWNSGALTSGVHTFPAVLQSSGLYSLSSVVTVPSSSLGTQTYICNVNHKPSNTKVDKKVEPKSCDKTHTCPPCPAPEAAGGPSVFLFPPKPKDTLMISRTPEVTCVVVSVSHEDPEVKFNWYVDGVEVHNAKTKPREEQYNSTYRVVSVLTVLHQDWLNGKEYKCKVSNKALPAPIEKTISKAKGQPREPQVYVYPPSRDELTKNQVSLTCLVKGFYPSDIAVEWESNGQPENNYKTTPPVLDSDGSFALVSKLTVDKSRWQQGNVFSCSVMHEALHNHYTQKSLSLSPGGGGGSGNFMLTQPHSVSESPGKTVTISCKRNTGNIGSNYVNWYQQHEGSSPTTIIYRNDKRPDGVSDRFSGSIDRSSKSASLTISNLKTEDEADYFCQSYSSGFIFGGGTKLTVLGGGGSGGGGSGGGGSGGGGSEVQLVESGGGLVQPGGSLRLSCAASGVTFNYYGMSWIRQAPGKGLEWVASITSSGGRIYYPDSVKGRFTISRENTQKTLYLQMNSLRAEDTAVYYCTLDGRDGWVAYWGQGTLVTVSS
heavy 2: EIVLTQSPATLSLSPGERVTMSCSASSSVSYMHWYQQKPGQAPRLWIYDTSKLASGVPARFSGSGSGTDYTLTISSVEPEDNAVYYCQQWSGHPLTFGQGTKVEIKGGGGSGGGGSGGGGSGGGGSQVQLVQSGAEVKKPGASVKISCKASGYSFTGYTMNWVRQAPGQGLEWIGLITPYSGASSYAQKFQGRATLTVDKSTSTAYMELSSLRSEDTAVYYCARGGYDGRGFDYWGQGTNVTVSSAAEPKSSDKTHTCPPCPAPEAAGGPSVFLFPPKPKDTLMISRTPEVTCVVVSVSHEDPEVKFNWYVDGVEVHNAKTKPREEQYNSTYRVVSVLTVLHQDWLNGKEYKCKVSNKALPAPIEKTISKAKGQPREPQVYVLPPSRDELTKNQVSLLCLVKGFYPSDIAVEWESNGQPENNYLTWPPVLDSDGSFFLYSKLTVDKSRWQQGNVFSCSVMHEALHNHYTQKSLSLSPG
light: DIQMTQSPSSLSASVGDRVTITCRASESVEYYVTSLMQWYQQKPGKAPKLLIYAASNVDSGVPSRFSGSGSGTDFTLTISSLQPEDIATYYCQQSRKVPFTFGGGTKVEIKRTVAAPSVFIFPPSDEQLKSGTASVVCLLNNFYPREAKVQWKVDNALQSGNSQESVTEQDSKDSTYSLSSTLTLSKADYEKHKVYACEVTHQGLSSPVTKSFNRGEC
notes: Het Fc, FcKO; also called CD28xCD3xMSLN trispecific
For the molecule B3, in assay [1], the dissociation constant Kd amounted to 50 nM, the koff is 0.00259 s⁻¹ and the kon is 52700 M⁻¹ s⁻¹. In assay [3], the Kd was found to be 7.08 nM, the off-rate constant (koff) stood at 0.00187 s⁻¹ and the kon was 294000 M⁻¹ s⁻¹. In addition, in assay [2], the Kd is 118 nM, the off-rate (koff) worked out at 0.0135 s⁻¹ and the on-rate constant (kon) is 118000 M⁻¹ s⁻¹.
